Changes are numbered by the printed parent chain.
Tests used:
可溶性CD20 (Genentech) = molecular target: T1, 可溶性CD20 (Genentech) (UniProt P11836); assay: ELISA, soluble CD20 coated on plate
T1 sequence (looked up): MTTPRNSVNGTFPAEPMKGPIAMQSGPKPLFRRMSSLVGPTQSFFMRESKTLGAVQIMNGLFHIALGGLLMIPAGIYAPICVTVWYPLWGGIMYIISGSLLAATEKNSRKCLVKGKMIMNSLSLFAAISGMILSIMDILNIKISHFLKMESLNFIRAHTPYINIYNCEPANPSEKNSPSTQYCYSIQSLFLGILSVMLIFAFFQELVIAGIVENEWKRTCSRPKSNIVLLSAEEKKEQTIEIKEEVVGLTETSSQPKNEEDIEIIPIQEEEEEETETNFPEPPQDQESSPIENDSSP

[1] = molecular target: T2, CD20 on WIL2-S cells (human) (UniProt P11836); assay: cell ELISA, WIL2-S; ratio vs chimeric 2H7.v6.8
T2 sequence (looked up): T1 sequence (looked up)

B1: hu2H7.v511 (antibody, human IgG1, kappa, V domains shown)
VH: EVQLVESGGGLVQPGGSLRLSCAASGYTFTSYNMHWVRQAPGKGLEWVGAIYPGNGATSYNQKFKGRFTISVDKSKNTLYLQMNSLRAEDTAVYYCARVVYYSYRYWYFDVWGQGTLVTVSS
VL: DIQMTQSPSSLSASVGDRVTITCRASSSVSYLHWYQQKPGKAPKPLIYAPSNLASGVPSRFSGSGSGTDFTLTISSLQPEDFATYYCQQWAFNPPTFGQGTKVEIKR
fold increase in binding (vs 2H7.v16 and 2H7.v588) (可溶性CD20 (Genentech)): 90 fold

B2: 人源化2H7型式2 (2H7.v2) (antibody, IgG1, V domains shown)
VH: B1 VH with G49A, A57D, V72R, K74N, Y104N, R105S
VL: B1 VL with L32M, P45L, A91S
相对结合 [1]: 0.01

B3: 2H7.v3 (antibody, IgG1, V domains shown)
VH: B1 VH with G49A, A57D, Y104N, R105S
VL: B1 VL with L32M, P45L, A91S
相对结合 [1]: 0.21

B4: 2H7.v4 (antibody, IgG1, V domains shown)
VH: B1 VH with G49A, A57D, K74N, Y104N, R105S
VL: B1 VL with L32M, P45L, A91S
相对结合 [1]: 0.21
